Source: publication PMC9462479 (2022)

B1: myc-tagged human ARMC5 (pcDNA3.1-myc-hARMC5), wild type [human] / FLAG-SREBF1(N), N-terminus of mouse SREBF1, from pcDNA3.1-FLAG-Srebf1(N) in HEK293T [mouse] (parent complex)
chain 1: MAAAKPTLTDSLSFCLAQLAAAAGEALGGEKDPATNETPLSRALLALRTRHIKAAGGIERFRARGGLRPLLALLRRAAAAGSAPSQAGPGSAPSSAASGASSPAPASGPAPSAVSSSSPTPPVRLRKTLDLALSILADCCTEGACRTEVRRLGGILPLVTILQCMKTDSIQNRTARALGNLAMEPESCGDIHCAGAVPLLVESLTACQDSQCLQSVVRALRNLADSPQHRLALAQQGAVRPLAELLATAPDAALTLALVRALLELSRGCSRACAEQLSLGGGLGPLVSLASHPKRAVREGTILILANLCAQGLIRPALGNAGGVEVLVDELRQRRDPNGASPTSQQPLVRAVCLLCREAINRARLRDAGGLDLLMGLLRDPRASAWHPRIVAALVGFLYDTGALGRLQALGLVPLLAGQLCGEAGEEEEEGREAASWDFPEERTPERAQGGSFRSLRSWLISEGYATGPDDISPDWSPEQCPPEPMEPASPAPTPTSLRAPRTQRTPGRSPAAAIEEPWGREGPALLLLSRFSQAPDPSGALVTGPALYGLLTYVTGAPGPPSPRALRILSRLTCNPACLEAFVRSYGAALLRAWLVLGVAPDDWPAPRARPTLHSRHRELGERLLQNLTVQAESPFGVGALTHLLLSGSPEDRVACALTLPFICRKPSLWRRLLLEQGGLRLLLAALTRPAPHPLFLFFAADSLSCLQDLVSPTVSPAVPQAVPMDLDSPSPCLYEPLLGPAPVPAPDLHFLLDSGLQLPAQRAASATASPFFRALLSGSFAEAQMDLVPLRGLSPGAAWPVLHHLHGCRGCGAALGPVPPPGQPLLGSEAEEALEAAGRFLLPGLEEELEEAVGRIHLGPQGGPESVGEVFRLGRPRLAAHCARWTLGSEQCPRKRGLALVGLVEAAGEEAGPLTEALLAVVMGIELGARVPA
chain 2: DELAFGEAALEQTLAEMCELDTAVLNDIEDMLQLINNQDSDFPGLFDAPYAGGETGDTGPSSPGANSPESFSSASLASSLEAFLGGPKVTPAPLSPPPSAPAALKMYPSVSPFSPGPGIKEEPVPLTILQPAAPQPSPGTLLPPSFPAPPVQLSPAPVLGYSSLPSGFSGTLPGNTQQPPSSLPLAPAPGVLPTPALHTQVQSLASQQPLPASAAPRTNTVTSQVQQVPVVLQPHFIKADSLLLTAVKTDAGATVKTAGISTLAPGTAVQAGPLQTLVSGGTILATVPLVVDTDKLPIHRLAAGSKALGSAQSRGEKRTAHNAIEKRYRSSINDKIVELKDLVVGTEAKLNKSAVLRKAIDYIRFLQHSNQKLKQENLTLRSAHKSKSLKDLVSACGSGGGTDVSMEGMKPEVVETLTPPPSDAGSPSQSSPLSFGSRASSSGGSDSEPDSP

Variants of: B1
Experiment: co-immunoprecipitation (anti-FLAG IP) with western blot densitometry; HEK293T cells; n = 3; read off a plot

| Variant | response |
| --- | --- |
| chain 1 L331P | ~0.12 A.U. |
| chain 1 L754P | ~0.31 A.U. |
| chain 1 R315W | ~0.12 A.U. |

Now from value to variant:

| response | Variant |
| --- | --- |
| ~0.3 A.U. | chain 1 R898W |
| ~0.075 A.U. | chain 1 R362L |
